These results are taken from patent US20250109209A1 (ABSCI, published 2025).

Broadly, the IC50 is the concentration that gives 50% inhibition. For orientation: Kd means the constant that tells how readily two partners part at equilibrium. A higher Kd goes with lower affinity.

A value given as a limit tells only on which side of the number the result lay.

Experiment [1] addresses T1, human TL1A (human, UniProt O95150 72-251).
T1 construct: Antigen in SPR and ELISA; Also used here for places that print only 'TL1A' and for endogenous TL1A in human whole blood; also called TNFSF15
T1 sequence (looked up): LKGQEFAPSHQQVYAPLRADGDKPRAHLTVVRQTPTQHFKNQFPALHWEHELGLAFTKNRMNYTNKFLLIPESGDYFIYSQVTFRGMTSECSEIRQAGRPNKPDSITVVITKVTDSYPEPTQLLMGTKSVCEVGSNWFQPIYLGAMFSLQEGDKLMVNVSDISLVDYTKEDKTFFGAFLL
The experiment is described as follows: selectivity ELISA: antibody pre-incubated with TL1A, inhibition of TL1A binding to plate-coated DcR3.

Experiment [2] deals with T1, human TL1A. The experiment is described as follows: selectivity ELISA: antibody pre-incubated with TL1A, inhibition of TL1A binding to plate-coated DR3. For orientation: An ELISA detects its analyte on a solid surface through an enzyme-linked reagent.
The target of experiment [3] is T1, human TL1A. The experiment is described as follows: SPR, mAb format, average. For orientation: SPR reads the build-up and loss of mass on a sensor chip optically.
For experiment [4], the target named is T2, Cyno TL1A (cyno, UniProt G7PRK8 72-251).
T2 sequence: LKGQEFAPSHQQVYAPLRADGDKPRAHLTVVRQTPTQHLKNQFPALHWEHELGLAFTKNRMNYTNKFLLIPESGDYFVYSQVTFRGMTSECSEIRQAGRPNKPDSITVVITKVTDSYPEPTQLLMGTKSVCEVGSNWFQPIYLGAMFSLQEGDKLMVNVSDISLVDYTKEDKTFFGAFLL
The experiment is described as follows: SPR, mAb format, average.

Experiment [5] addresses T1, human TL1A. The experiment is described as follows: SPR, mAb format, average. The source holds these as a separate data set.
Experiment [6] concerns the target T3, mouse TL1A (mouse, UniProt Q5UBV8 76-252, limits assumed).
T3 sequence (looked up): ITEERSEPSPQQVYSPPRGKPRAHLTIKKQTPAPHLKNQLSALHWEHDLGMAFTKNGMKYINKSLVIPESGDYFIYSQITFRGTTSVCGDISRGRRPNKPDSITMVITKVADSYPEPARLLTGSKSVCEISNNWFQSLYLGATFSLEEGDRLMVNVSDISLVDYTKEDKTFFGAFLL
The experiment is described as follows: SPR, mAb format.

Experiment [7] deals with T4, FcRn (UniProt P55899 24-297; P61769 21-119).
T4 construct: also called neonatal receptor
Description: SPR, mAb format, FcRn at pH 6.0, average.

Experiment [8] has as its target T1, human TL1A. Description: SPR, mAb format, average. The source holds these as a separate data set.
Experiment [9] addresses T3, mouse TL1A. The experiment is described as follows: SPR, mAb format, average.
For experiment [10], the target named is T2, Cyno TL1A. Description: SPR, representative sensorgram with Cyno TL1A.
For experiment [11], the target named is T1, human TL1A. Description: SPR, representative sensorgram with Human TL1A.
Experiment [12] deals with T4, FcRn. Description: SPR, representative sensorgram with FcRn, pH 6.0.
The target of experiment [13] is T1, human TL1A. The experiment is described as follows: SPR, affinity capture of Fab, average.

T4 sequence (P55899 24-297 limits assumed, chain 1 of 2): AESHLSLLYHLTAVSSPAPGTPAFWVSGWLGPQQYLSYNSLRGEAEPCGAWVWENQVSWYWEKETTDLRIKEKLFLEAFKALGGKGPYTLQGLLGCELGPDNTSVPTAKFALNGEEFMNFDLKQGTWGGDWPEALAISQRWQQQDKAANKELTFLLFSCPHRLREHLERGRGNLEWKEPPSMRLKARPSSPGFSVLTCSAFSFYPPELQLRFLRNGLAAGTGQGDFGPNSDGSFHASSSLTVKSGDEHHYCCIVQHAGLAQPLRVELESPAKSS
T4 sequence (P61769 21-119 limits assumed, chain 2 of 2): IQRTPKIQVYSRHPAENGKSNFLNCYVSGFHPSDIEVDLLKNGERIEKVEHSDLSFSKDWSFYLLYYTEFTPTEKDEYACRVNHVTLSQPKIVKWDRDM

B1: TEV-48574 (antibody, V domains shown)
VH: QVQLVQSGAEVKKPGASVKVSCKASGYTFTSYDINWVRQAPGQGLEWMGWLNPNSGYTGYAQKFQGRVTMTADRSTSTAYMELSSLRSEDTAVYYCAREVPETAAFEYWGQGTLVTVSS
VL: QSVLTQPPSVSGAPGQRVTISCTSSSSDIGAGLGVHWYQQLPGTAPKLLIEGYYNRPSGVPDRFSGSKSGTSASLTITGLLPEDEGDYYCQSWDGTLSALFGGGTKLTVLR
Regarding B1, the values for the IC50 in experiment [1] and in experiment [2] were 0.7 µg/mL and 2.6 µg/mL, respectively.

B2: Antibody 2 (mAb format) (antibody, human IgG1, kappa, N297A)
heavy: QVQLQESGPGLVRPSQTLSLTCTVSGLDPDDTYMHWVRQRPGRGLEWMGRIEPAGGHTKYNPSLKSRVTITRDTSKNQVSLRLSSVTAADTAVYYCVISGGLPDVWGQGSLVTVSSASTKGPSVFPLAPSSKSTSGGTAALGCLVKDYFPEPVTVSWNSGALTSGVHTFPAVLQSSGLYSLSSVVTVPSSSLGTQTYICNVNHKPSNTKVDKKVEPKSCDKTHTCPPCPAPELLGGPSVFLFPPKPKDTLMISRTPEVTCVVVDVSHEDPEVKFNWYVDGVEVHNAKTKPREEQYASTYRVVSVLTVLHQDWLNGKEYKCKVSNKALPAPIEKTISKAKGQPREPQVYTLPPSRDELTKNQVSLTCLVKGFYPSDIAVEWESNGQPENNYKTTPPVLDSDGSFFLYSKLTVDKSRWQQGNVFSCSVLHEALHSHYTQKSLSLSPGK
light: DIQMTQSPSSLSASVGDRVTITCRASSSVSYMYWYQQKPGKAPKLLIYATSNLASGVPSRFSGSGSGTDFTFTISSLQPEDIATYYCQQWEGNPRTFGQGTKVEIKRTVAAPSVFIFPPSDEQLKSGTASVVCLLNNFYPREAKVQWKVDNALQSGNSQESVTEQDSKDSTYSLSSTLTLSKADYEKHKVYACEVTHQGLSSPVTKSFNRGEC
notes: also called high priority lead mAb
As for B2, the Kd came out at 0.195 nM in [3]; 0.408 nM in [4]; 0.195 nM in experiment [5]; 17.1 nM in experiment [7]; 0.195 nM in experiment [8]. Further, the binding result in experiment [6] was “no binding”.

B3: Antibody 3 (mAb format) (antibody, human IgG1, kappa, N297A)
heavy: QVQLQESGPGLVRPSQTLSLTCTVSGFDIQDTYMHWVRQRPGRGLEWMGRIEPAGGHTKYNPSLKSRVTITRDTSKNQVSLRLSSVTAADTAVYYCVRSGGLPDAWGQGSLVTVSSASTKGPSVFPLAPSSKSTSGGTAALGCLVKDYFPEPVTVSWNSGALTSGVHTFPAVLQSSGLYSLSSVVTVPSSSLGTQTYICNVNHKPSNTKVDKKVEPKSCDKTHTCPPCPAPELLGGPSVFLFPPKPKDTLMISRTPEVTCVVVDVSHEDPEVKFNWYVDGVEVHNAKTKPREEQYASTYRVVSVLTVLHQDWLNGKEYKCKVSNKALPAPIEKTISKAKGQPREPQVYTLPPSRDELTKNQVSLTCLVKGFYPSDIAVEWESNGQPENNYKTTPPVLDSDGSFFLYSKLTVDKSRWQQGNVFSCSVLHEALHSHYTQKSLSLSPGK
light: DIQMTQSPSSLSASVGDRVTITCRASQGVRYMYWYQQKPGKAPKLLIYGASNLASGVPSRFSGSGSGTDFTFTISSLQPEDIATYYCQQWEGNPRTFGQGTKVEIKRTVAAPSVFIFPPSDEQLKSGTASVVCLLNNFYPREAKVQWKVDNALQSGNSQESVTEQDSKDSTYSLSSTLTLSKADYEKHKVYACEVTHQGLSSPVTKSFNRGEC
notes: as for B2
B3: the dissociation constant Kd was 0.044 nM in experiment [3]; 117 nM in experiment [9]; 0.032 nM in experiment [4]; less than 0.031 nM in experiment [10]; less than 0.044 nM in [11]; 0.044 nM in experiment [5]. Further, the figures for the equilibrium dissociation constant (Kd) in experiment [7], in experiment [12] and in [8] were 16 nM, 14 nM and 0.044 nM, respectively.

B4: Antibody 13 (mAb format) (antibody, human IgG1, kappa, N297A)
heavy: QVQLQESGPGLVRPSQTLSLTCTVSGFDYQDTYMHWVRQRPGRGLEWMGRIDPASGHTKYNPSLKSRVTITRDTSKNQVSLRLSSVTAADTAVYYCAVSGGMPDVWGQGSLVTVSSASTKGPSVFPLAPSSKSTSGGTAALGCLVKDYFPEPVTVSWNSGALTSGVHTFPAVLQSSGLYSLSSVVTVPSSSLGTQTYICNVNHKPSNTKVDKKVEPKSCDKTHTCPPCPAPELLGGPSVFLFPPKPKDTLMISRTPEVTCVVVDVSHEDPEVKFNWYVDGVEVHNAKTKPREEQYASTYRVVSVLTVLHQDWLNGKEYKCKVSNKALPAPIEKTISKAKGQPREPQVYTLPPSRDELTKNQVSLTCLVKGFYPSDIAVEWESNGQPENNYKTTPPVLDSDGSFFLYSKLTVDKSRWQQGNVFSCSVLHEALHSHYTQKSLSLSPGK
light: DIQMTQSPSSLSASVGDRVTITCRASQGVEYMYWYQQKPGKAPKLLIYATSNLASGVPSRFSGSGSGTDFTFTISSLQPEDIATYYCQQWEGNPRTFGQGTKVEIKRTVAAPSVFIFPPSDEQLKSGTASVVCLLNNFYPREAKVQWKVDNALQSGNSQESVTEQDSKDSTYSLSSTLTLSKADYEKHKVYACEVTHQGLSSPVTKSFNRGEC
notes: as for B2
Take B4: the equilibrium dissociation constant (Kd) in experiment [3] amounted to 0.385 nM; in [4], 0.154 nM; in experiment [5] it was 0.385 nM; in experiment [7], 18.8 nM; in experiment [8] it was 0.385 nM. Besides, the binding result in [6] is given as “no binding”.

B5: Antibody 10 (mAb format) (antibody, human IgG1, kappa, N297A)
heavy: QVQLQESGPGLVRPSQTLSLTCTVSGLDPDDTYMHWVRQRPGRGLEWMGRIEPAGGHTKYNPSLKSRVTITRDTSKNQVSLRLSSVTAADTAVYYCVISGGLPDVWGQGSLVTVSSASTKGPSVFPLAPSSKSTSGGTAALGCLVKDYFPEPVTVSWNSGALTSGVHTFPAVLQSSGLYSLSSVVTVPSSSLGTQTYICNVNHKPSNTKVDKKVEPKSCDKTHTCPPCPAPELLGGPSVFLFPPKPKDTLMISRTPEVTCVVVDVSHEDPEVKFNWYVDGVEVHNAKTKPREEQYASTYRVVSVLTVLHQDWLNGKEYKCKVSNKALPAPIEKTISKAKGQPREPQVYTLPPSRDELTKNQVSLTCLVKGFYPSDIAVEWESNGQPENNYKTTPPVLDSDGSFFLYSKLTVDKSRWQQGNVFSCSVLHEALHSHYTQKSLSLSPGK
light: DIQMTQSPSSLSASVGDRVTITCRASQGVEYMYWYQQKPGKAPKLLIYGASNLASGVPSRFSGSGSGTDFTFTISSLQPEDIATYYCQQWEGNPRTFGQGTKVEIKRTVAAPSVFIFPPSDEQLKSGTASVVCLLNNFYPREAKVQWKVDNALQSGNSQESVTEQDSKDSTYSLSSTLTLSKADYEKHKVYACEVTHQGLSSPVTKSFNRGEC
notes: as for B2
For B5, the Kd worked out at 0.482 nM in experiment [3]; 0.253 nM in experiment [4]; 0.482 nM in experiment [5]; 22.1 nM in experiment [7]; 0.482 nM in experiment [8]. In addition, the binding result in experiment [6] was “no binding”.

B6: RVT-3101 (antibody, V domains shown)
VH: QVQLVQSGAEVKKPGASVKVSCKASGYDFTYYGISWVRQAPGQGLEWMGWISTYNGNTHYARMLQGRVTMTTDTSTRTAYMELRSLRSDDTAVYYCARENYYGSGAYRGGMDVWGQGTTVTVSS
VL: EIVLTQSPATLSLSPGERATLSCRASQSVSSYLAWYQQKPGQAPRLLIYDASNRATGIPARFSGSGSGTDFTLTISSLEPEDFAVYYCQQRSNWPWTFGQGTKVEIK
Take B6: the IC50 in experiment [1] worked out at 0.8 µg/mL; in experiment [2], 4.4 µg/mL.

B7: Heron2B-Toci (Fab, V domains shown)
VH: QVQLQESGPGLVRPSQTLSLTCTVSGFDIQDTYMHWVRQRPGRGLEWMGRIDPASGHTKYNPSLKSRVTITRDTSKNQVSLRLSSVTAADTAVYYCARSGGLPDVWGQGSLVTVSS
VL: DIQMTQSPSSLSASVGDRVTITCRASSSVSYMYWYQQKPGKAPKLLIYATSNLASGVPSRFSGSGSGTDFTFTISSLQPEDIATYYCQQWEGNPRTFGQGTKVEIK
notes: also called Heron2B-toci parent
B7 displayed a Kd in [13] of 5.71 nM.
